Reference: publication PMC11821514 (Nature Cell Biology, 2025)

B1: Atg19^3D (natural protein, budding yeast, UniProt P35193 1-415, looked up)
chain: MNNSKTNQQMNTSMGYPLTVYDECNKFQLIVPTLDANIMLWCIGQLSLLNDSNGCKHLFWQPNDKSNVRILLNNYDYGHLFKYLQCQRKCSVYIGEGTLKKYNLTISTSFDNFLDLTPSEEKESLCREDAHEDPVSPKAGSEEEISPNSTSNVVVSRECLDNFMKQLLKLEESLNKLELEQKVTNKEPNHRISGTIDIPEDRSELVNFFTELKTVKQLEDVFQRYHDYERLSQECDSKTEIASDHSKKETKIEVEPPNERSLQITMNQRDNSLYFQLFNNTNSVLAGNCKLKFTDAGDKPTTQIIDMGPHEIGIKEYKEYRYFPYALDLEAGSTIEIENQYGEVIFLGKYGSSPMINLRPPSRLSAESLQASQEPFYSFQIDTLPELDDDDIISTDISLSYDGDDNEKALTWEEL
notes: Atg19, budding yeast, phospho-mimetic mutant S390D, S391D, S396D; also called purified recombinant Atg19^3D; source: E. coli BL21(DE3), expressed as GST–Atg19^3D from pGEX-4T.1, purified (GSH beads, thrombin elution, Superdex200); not shown: GST, N-terminal, cleaved
B2: GST–mTagBFP–Atg19^3D (natural protein, budding yeast, UniProt P35193 1-415, looked up)
chain: B1 chain
notes: Atg19, budding yeast, phospho-mimetic mutant S390D, S391D, S396D; also called GST–BFP–Atg19^3D; Atg19^3D-decorated beads; not shown: GST, N-terminal, kept; mTagBFP, N-terminal, kept
B3: GST–BFP–Vac8 (natural protein, budding yeast, UniProt P39968 1-578, looked up)
chain: MGSCCSCLKDSSDEASVSPIADNEREAVTLLLGYLEDKDQLDFYSGGPLKALTTLVYSDNLNLQRSAALAFAEITEKYVRQVSREVLEPILILLQSQDPQIQVAACAALGNLAVNNENKLLIVEMGGLEPLINQMMGDNVEVQCNAVGCITNLATRDDNKHKIATSGALIPLTKLAKSKHIRVQRNATGALLNMTHSEENRKELVNAGAVPVLVSLLSSTDPDVQYYCTTALSNIAVDEANRKKLAQTEPRLVSKLVSLMDSPSSRVKCQATLALRNLASDTSYQLEIVRAGGLPHLVKLIQSDSIPLVLASVACIRNISIHPLNEGLIVDAGFLKPLVRLLDYKDSEEIQCHAVSTLRNLAASSEKNRKEFFESGAVEKCKELALDSPVSVQSEISACFAILALADVSKLDLLEANILDALIPMTFSQNQEVSGNAAAALANLCSRVNNYTKIIEAWDRPNEGIRGFLIRFLKSDYATFEHIALWTILQLLESHNDKVEDLVKNDDDIINGVRKMADVTFERLQRSGIDVKNPGSNNNPSSNDNNSNNNDTGSEHQPVEDASLELYNITQQILQFLH
notes: Vac8, vacuolar membrane protein, budding yeast; The results text says GST–Vac8, the legend GST–BFP–Vac8; also called GST–Vac8; recombinant GST–Vac8; not shown: GST, N-terminal, kept; BFP, N-terminal, kept

How the values were obtained:
GST–Atg11^685–1178 = target: T1, GST–Atg11^685–1178 (budding yeast, UniProt Q12527 685-1178); assay: pull-down; GST fusions on GSH beads incubated with purified recombinant Atg19^3D, 20 min at room temperature; six washes with GST-wash buffer containing 0.02% Tween-20; immunoblotting; details: both partners purified
T1 construct: also called C-terminal fragment of Atg11; not shown: GST, N-terminal, kept
T1 sequence (looked up): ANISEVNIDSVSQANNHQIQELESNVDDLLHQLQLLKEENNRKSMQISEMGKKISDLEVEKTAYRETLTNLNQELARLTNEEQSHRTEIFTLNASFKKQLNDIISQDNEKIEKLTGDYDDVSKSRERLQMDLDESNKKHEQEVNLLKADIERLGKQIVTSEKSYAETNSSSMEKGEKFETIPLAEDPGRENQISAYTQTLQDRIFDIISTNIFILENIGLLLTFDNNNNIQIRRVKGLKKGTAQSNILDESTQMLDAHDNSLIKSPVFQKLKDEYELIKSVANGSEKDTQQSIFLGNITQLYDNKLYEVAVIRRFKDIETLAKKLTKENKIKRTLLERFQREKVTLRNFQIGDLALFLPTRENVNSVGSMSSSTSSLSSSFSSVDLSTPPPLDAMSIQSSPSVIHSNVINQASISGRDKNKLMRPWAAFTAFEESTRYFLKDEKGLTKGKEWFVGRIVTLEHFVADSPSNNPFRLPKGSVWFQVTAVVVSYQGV

StrepII–GFP–Atg11 = target: T2, StrepII–GFP–Atg11 (budding yeast, UniProt Q12527 1-1178); assay: bead binding assay read by fluorescence microscopy; GST–BFP fusion on GSH beads incubated with preformed GFP–Atg11 condensates (purified by the methods and results, Sf9 lysate by the legends), 20 min at room temperature; imaged before and after eight washes with 20 mM HEPES pH 7.5, 150 mM NaCl, 5 mM DTT; details: both partners purified
T2 construct: Atg11, budding yeast; the ATG11 ORF was subcloned with an N-terminal StrepII–GFP tag into a pLIB vector; Used as preformed condensates (20 min at room temperature in 20 mM HEPES pH 7.5, 150 mM NaCl, 5 mM DTT); also called GFP–Atg11 condensates; GFP–Atg11 droplets; source: Sf9 insect cells, baculovirus, purified (Strep-TactinXT); not shown: GFP, N-terminal, kept
T2 sequence (looked up): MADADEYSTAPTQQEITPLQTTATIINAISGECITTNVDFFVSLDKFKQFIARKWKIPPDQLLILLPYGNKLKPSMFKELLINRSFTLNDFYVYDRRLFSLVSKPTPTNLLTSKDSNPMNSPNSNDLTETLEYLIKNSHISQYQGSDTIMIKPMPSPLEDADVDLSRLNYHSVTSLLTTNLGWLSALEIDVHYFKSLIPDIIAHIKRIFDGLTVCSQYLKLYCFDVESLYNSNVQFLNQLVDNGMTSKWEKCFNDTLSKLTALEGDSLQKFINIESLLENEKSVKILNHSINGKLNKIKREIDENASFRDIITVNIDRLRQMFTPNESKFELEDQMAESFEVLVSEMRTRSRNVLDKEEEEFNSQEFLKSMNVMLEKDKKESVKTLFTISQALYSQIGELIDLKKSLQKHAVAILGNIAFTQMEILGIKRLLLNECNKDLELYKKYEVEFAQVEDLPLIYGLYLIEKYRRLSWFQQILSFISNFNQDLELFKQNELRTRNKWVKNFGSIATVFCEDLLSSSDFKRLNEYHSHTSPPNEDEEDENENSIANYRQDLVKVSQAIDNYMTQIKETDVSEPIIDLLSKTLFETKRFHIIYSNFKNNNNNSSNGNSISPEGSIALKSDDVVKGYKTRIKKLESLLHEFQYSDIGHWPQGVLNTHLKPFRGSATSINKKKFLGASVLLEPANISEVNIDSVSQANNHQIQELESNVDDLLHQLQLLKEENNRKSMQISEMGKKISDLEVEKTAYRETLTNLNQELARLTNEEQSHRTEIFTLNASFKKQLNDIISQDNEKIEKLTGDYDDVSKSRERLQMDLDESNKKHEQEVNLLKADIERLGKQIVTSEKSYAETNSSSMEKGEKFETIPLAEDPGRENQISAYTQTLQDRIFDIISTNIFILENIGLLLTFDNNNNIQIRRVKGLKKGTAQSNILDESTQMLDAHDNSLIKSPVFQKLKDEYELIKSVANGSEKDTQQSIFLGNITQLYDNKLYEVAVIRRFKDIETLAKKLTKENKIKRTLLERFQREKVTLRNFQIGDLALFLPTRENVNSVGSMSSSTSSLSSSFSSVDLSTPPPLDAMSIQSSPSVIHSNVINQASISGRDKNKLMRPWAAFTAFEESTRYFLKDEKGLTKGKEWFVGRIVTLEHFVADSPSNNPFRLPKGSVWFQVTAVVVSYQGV

Binder | binding result (GST–Atg11^685–1178) | binding result (StrepII–GFP–Atg11)
B1 | binds | 
B2 |  | binds
B3 |  | binds
